Experiment [1] addresses helicar motif amino acid sequence cysteine variant 2, …(5-Fluo)-OH x TFA. In words: covalent disulfide coupling, 2.5 molar excess of peptide.
Experiment [2] has as its target PEG3-PYY(PEG3-Cys-4Abu-Dig) / PEG3-IK(PEG3-Cys-4Abu-Dig)-Pqa-…-MeArg-Y-NH2. Put plainly: mass spectrometry of the covalent disulfide conjugate, 2:1 peptide to antibody, 1 mM GSH / 5 mM GSSG.
Experiment [3] has as its target Ac-PYY(PEG3-Cys-4Abu-Dig) / Ac-IK(PEG3-Cys-4Abu-Dig)-Pqa-…-MeArg-Y-NH2. In words: mass spectrometry of the covalent disulfide conjugate, 2:1 peptide to antibody, no redox agents.
For experiment [4], the target named is Ac-PYY(PEG3-Cys-4Abu-NH2) / Ac-IK(PEG3-Cys-4Abu-NH2)-Pqa-…-MeArg-Y-NH2. Put plainly: mass spectrometry, non-haptenylated peptide 2.1:1 to antibody.
Experiment [5] deals with Ac-PYY(PEG3-Cys-PEG2-5-Fluo) / Ac-IK(PEG3-Cys-PEG2-5-Fluo)-Pqa-…-MeArg-Y-NH2. Put plainly: mass spectrometry of the covalent disulfide conjugate, 2.5:1 peptide to antibody, no redox agents.

The record followed here is patent US20210069338A1.

B1: anti-helicar motif amino acid sequence antibody (0155), light chain variable domain N55C variant (antibody, V domains shown)
V domain 1: QAVVTQEPSLTVSPGGTVTLTCGSSTGAVTTSNYASWVQQKPGQAFTGLIGGTNNRAPWTPARFSGSLLGGKAALTLSGAQPEDEAEYYCALWYSNHWVFGGGTKLTVL
V domain 2: DAVVTQESALTTSPGETVTLTCRSSTGAVTTSNYASWVQEKPDHLFTGLIGGTNCRAPGVPARFSGSLIGDKAALTITGAQTEDEAIYFCALWYSNHWVFGGGTKLTVL
In experiment [1], B1 yielded a % of antibody covalently conjugated to one helicar motif amino acid sequence of 40%, a % of antibody covalently conjugated to two helicar motif amino acid sequences of 43% and a % of antibody not conjugated of 17%.

B2: humanized anti-digoxigenin antibody VH52bC (antibody, from a related filing, V domains shown)
VH: QVQLVESGGGLVKPGGSLRLSCAASGFTFSDYAMSWIRQAPGKGLEWVSSINICATYIYYADSVKGRFTISRDNAKNSLYLQMNSLRAEDTAVYYCARPGSPYEYDKAYYSMAYWGQGTTVTVSS
VL: DIQMTQSPSSLSASVGDRVTITCRASQDIKNYLNWYQQKPGKAPKLLIYYSSTLLSGVPSRFSGSGSGTDFTLTISSLQPEDFATYYCQQSITLPPTFGCGTKVEIK
Turning to B2, the % of detected species = antibody coupled to 1 peptide molecule in experiment [2] was determined as 46%; in experiment [3], 40%; in experiment [4] it was 51%. Further, the % of detected species = antibody coupled to 2 peptide molecules is 43% in experiment [2], 7.4% in experiment [3] and 17% in experiment [4]. The % of detected species = uncoupled antibody in experiment [2] worked out at 11%; in experiment [3], 52%; in experiment [4], 32%.

B3: humanized anti-digoxigenin antibody (antibody, from a related filing, V domains shown)
VH: QVQLVESGGGLVKPGGSLRLSCAASGFTFSDYAMSWIRQAPGKGLEWVSSINIGATYIYYADSVKGRFTISRDNAKNSLYLQMNSLRAEDTAVYYCARPGSPYEYDKAYYSMAYWGQGTTVTVSS
VL: DIQMTQSPSSLSASVGDRVTITCRASQDIKNYLNWYQQKPGKAPKLLIYYSSTLLSGVPSRFSGSGSGTDFTLTISSLQPEDFATYYCQQSITLPPTFGGGTKVEIK
Regarding B3, the % of detected species = uncoupled antibody in experiment [4] was 100%.

B4: anti-fluorescein antibody VH52bC (antibody, V domains shown)
VH: GVKLDETGGGLVQPGGAMKLSCVTSGFTFGHYWMNWVRQSPEKGLEWVAQFRNCPYNYETYYSDSVKGRFTISRDDSKSSVYLQMNNLRVEDTGIYYCTGASYGMEYLGQGTSVTVSS
VL: DVVMTQTPLSLPVSLGDQASISCRSSQSLVHSNGNTYLRWYLQKPGQSPKVLIYKVSNRVSGVPDRFSGSGSGTDFTLKINRVEAEDLGVYFCSQSTHVPWTFGGGTKLEIK
In experiment [5], B4 came in with a % of detected species = antibody coupled to 1 peptide molecule of 5% and a % of detected species = antibody coupled to 2 peptide molecules of 95%.

B5: anti-fluorescein antibody VH28C (antibody, from a related filing, V domains shown, part only)
VH: GVKLDETGGGLVQPGGAMKLSCVTSGFCFGHYWMNWVRQSPEKGLEWVAQFRNKPYNYETYYSDSVKGRFTISRDDSKSSVYLQMNNLRVEDTGIYYCTGASYGMEYLGQGTSVTVSS
VL: DVVMTQTPLSLPVSLGDQASISCRSSQSLVHSNGNTYLRWYLQKPGQSPKVLIYKVSNRVSGVPDRFSGSGSGTDFTLKINRVEAEDLGVYFCSQSTHVPWTFGGGTKLEIK
In experiment [5], B5 gave a % of detected species = antibody coupled to 2 peptide molecules of 100%.
